According to paper PMC5714352:

System: NucT H124N (Helicobacter pylori 26695)
Assay: EMSA

CAACGGCATAAAGCTTGACGATTACATTGCTAGGACATCTTTGCCCACCTGCAGGTTCACCC [substrate I (XV98, 62-mer ssDNA)]
Kd: 2 nM
